Measurements: IntAct's records for PubMed 17301792

B1: Translationally-controlled tumor protein homolog (Drosophila melanogaster (Fruit fly)), Q9VGS2 (parent)
chain: MKIYKDIITGDEMFADTYKMKLVDDVIYEVYGKLITRQGDDIKLEGANASAEEADEGTDITSESGVDVVLNHRLTECFAFGDKKSYTLYLKDYMKKVLAKLEEKSPDQVDIFKTNMNKAMKDILGRFKELQFFTGESMDCDGMVALVEYREINGDSVPVLMFFKHGLEEEKC
partner: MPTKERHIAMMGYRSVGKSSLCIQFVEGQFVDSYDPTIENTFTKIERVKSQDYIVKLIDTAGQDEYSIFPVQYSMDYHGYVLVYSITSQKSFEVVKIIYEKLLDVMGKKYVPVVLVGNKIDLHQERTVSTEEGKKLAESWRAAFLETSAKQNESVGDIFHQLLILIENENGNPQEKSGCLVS

Variants of: B1
Conditions: with rheb_drome Rheb

Row | effect of a mutation on the interaction | Variant
1 | decreasing interaction strength | E12V

Variants of: B1
Conditions: with rheb_drome Rheb
Remark: another data set of the same source

Row | effect of a mutation on the interaction | Variant
2 | disrupting interaction strength | E12V
